Experimental data: patent publication US20040116675A1 (published 2004)

Legend:
[1] = target: T1, CD28 on P815/CD28+ cells (P815 mouse mastocytoma stably transfected with CD28) (human, UniProt P10747 19-220); experiment: competition against ^125I-labeled MuTN228 on P815/CD28+ cells, Expt 3
T1 construct: whole, on cells; also called CD28 antigen; CD28 molecules on P815/CD28^+ cells

[2] = target: T1, CD28 on P815/CD28+ cells (P815 mouse …); experiment: competition against ^125I-labeled MuTN228 on P815/CD28+ cells, Expt 2
[3] = target: T2, sCD28-Fc (extracellular domains of CD28 combined with the CH2 and CH3 domains of IgG1) (human, UniProt P10747 19-152); experiment: ELISA competition on coated sCD28-Fc against MuTN228-biotin, average of 3 experiments (Std. Dev. 0.14)
T2 construct: extracellular domain; not shown: CH2 and CH3 domains of IgG1

[4] = target: T1, CD28 on P815/CD28+ cells (P815 mouse …); experiment: competition against ^125I-labeled MuTN228 on P815/CD28+ cells, average of 3 experiments (St. Dev. 0.26)
[5] = target: T2, sCD28-Fc (extracellular domains of CD28 …); experiment: ELISA competition on coated sCD28-Fc against MuTN228-biotin, reference MuTN228
[6] = target: T1, CD28 on P815/CD28+ cells (P815 mouse …); experiment: competition against ^125I-labeled MuTN228 on P815/CD28+ cells, reference MuTN228
[7] = target: T2, sCD28-Fc (extracellular domains of CD28 …); experiment: ELISA competition on coated sCD28-Fc against MuTN228-biotin, Expt 1
[8] = target: T1, CD28 on P815/CD28+ cells (P815 mouse …); experiment: competition against ^125I-labeled MuTN228 on P815/CD28+ cells, Expt 1
[9] = target: T2, sCD28-Fc (extracellular domains of CD28 …); experiment: ELISA competition on coated sCD28-Fc against MuTN228-biotin, Expt 2

B1: HuTN228 (humanized TN228-IgG2M3) (antibody, V domains shown)
VH: QVQLQESGPGLVKPSETLSLTCAVSGFSLTSYGVHWIRQPPGKGLEWLGVIWPGGGTNFNSALMSRLTISEDTSKNQVSLKLSSVTAADTAVYYCARDRAYGNYLYAMDYWGQGTLVTVSS
VL: DIQMTQSPSSLSASVGDRVTITCRASESVEYYVTSLMQWYQQKPGKAPKLLIYAASNVDSGVPSRFSGSGSGTDFTLTISSLQPEDIATYYCQQSRKVPFTFGGGTKVEIK
IC50 [1]: 2.13 nM
IC50 [2]: 2.43 nM
IC50 [3]: 0.5 µg/mL
IC50 [4]: 2.4 nM
fold less relative binding than MuTN228 [5]: 2.6 fold
fold less apparent binding affinity than MuTN228 [6]: ~2.4 fold
IC50 [7]: 0.37 µg/mL
IC50 [8]: 2.65 nM
IC50 [9]: 0.64 µg/mL
